Assay results taken from the Human Domainome abundance scans (Beltran et al. 2025).
± gives the uncertainty stated by the source.

B1: Homeobox protein cut-like 2, residues 895 to 963; numbered along this chain, O14529 (parent)
chain: EVDTLELTRQVKEKLAKNGICQRIFGEKVLGLSQGSVSDMLSRPKPWSKLTQKGREPFIRMQLWLSDQL

Variants of: B1
Experiment: abundance fitness (aPCA) (normalised: wild type 0, dead -1); higher = more abundant; growth selection in yeast, the domain comes from the species named
Details: Homo sapiens

Row | Variant | abundance fitness
1 | R60V | -0.863 ± 0.091
2 | L69P | -0.163 ± 0.057
3 | G26L | -0.162 ± 0.028
4 | S48H | -0.011 ± 0.04
5 | E1H | -0.149 ± 0.27
6 | L69W | -0.137 ± 0.044
7 | I24N | -0.204 ± 0.079
8 | R60G | -0.287 ± 0.23
9 | F58M | -0.502 ± 0.076
10 | D67F | -0.64 ± 0.045
11 | E6T | -0.129 ± 0.08
12 | G54T | -0.084 ± 0.034
13 | C21M | -0.045 ± 0.039
14 | T8L | -0.157 ± 0.026
15 | S66V | -0.066 ± 0.037
16 | L69R | -0.08 ± 0.04
17 | T8Y | -0.309 ± 0.056
18 | S42H | -0.007 ± 0.045
19 | L32V | 0.132 ± 0.05
20 | D3V | -0.42 ± 0.029
21 | V2D | -0.301 ± 0.072
22 | L7Q | -0.124 ± 0.042
23 | Q52G | -0.18 ± 0.05
24 | T51R | -0.109 ± 0.063

Row | Variant | abundance fitness
25 | Q34D | -0.078 ± 0.14
26 | L7C | -0.164 ± 0.051
27 | C21F | -0.094 ± 0.15
28 | P44Y | -0.041 ± 0.057
29 | C21R | -0.087 ± 0.031
30 | Q34V | 0.073 ± 0.13
31 | K12T | -0.271 ± 0.045
32 | G35D | -0.125 ± 0.07
33 | S36P | -0.08 ± 0.028
34 | E56D | -0.186 ± 0.12
35 | L30A | -0.447 ± 0.083
36 | K45D | -0.108 ± 0.068
37 | T51Q | -0.247 ± 0.04
38 | K14D | -0.55 ± 0.12
39 | K45F | -0.243 ± 0.035
40 | T4R | -0.13 ± 0.035
41 | W47Y | -0.554 ± 0.063
42 | Q34C | -0.262 ± 0.18
43 | R23N | 0.038 ± 0.13
44 | D39M | -0.178 ± 0.097
45 | W64H | -1.08 ± 0.14
46 | K53A | -0.014 ± 0.035
47 | Q62N | -0.401 ± 0.16
48 | K17G | -0.234 ± 0.043

Row | Variant | abundance fitness
49 | K49H | 0.009 ± 0.039
50 | L63A | 0.058 ± 0.055
51 | R9Q | -0.132 ± 0.045
52 | T51F | -0.005 ± 0.059
53 | K28H | -0.128 ± 0.054
54 | M61Q | -1.02 ± 0.1
55 | S48M | -0.323 ± 0.048
56 | E6I | -0.196 ± 0.077
57 | P44V | -0.161 ± 0.035
58 | G31I | -0.712 ± 0.068
59 | L32S | -0.203 ± 0.04
60 | S42P | -0.159 ± 0.05
61 | Q52N | -0.215 ± 0.12
62 | P44T | -0.101 ± 0.043
63 | T8Q | -0.333 ± 0.039
64 | G35L | -0.03 ± 0.024
65 | R43K | -0.047 ± 0.07
66 | E27F | -0.173 ± 0.031
67 | R9H | -0.358 ± 0.1
68 | S36W | -0.057 ± 0.064
69 | Q10C | -0.343 ± 0.082
70 | K14F | 0.102 ± 0.056
71 | V11P | -0.141 ± 0.051
72 | L50E | -1.11 ± 0.11

Row | Variant | abundance fitness
73 | M40L | 0.136 ± 0.036
74 | G35S | 0.027 ± 0.038
75 | G31T | -0.274 ± 0.039
76 | L50P | -1.04 ± 0.069
77 | F25G | -0.9 ± 0.064
78 | L15Y | -0.124 ± 0.052
79 | D67P | -0.209 ± 0.077
80 | V37M | -0.227 ± 0.051
81 | L5P | -0.076 ± 0.036
82 | S48I | -0.223 ± 0.047
83 | R9D | -0.21 ± 0.059
84 | W64I | -1.19 ± 0.25
85 | R23Q | -0.079 ± 0.048
86 | V2W | -0.137 ± 0.045
87 | D67S | -0.082 ± 0.042
88 | S33C | -0.035 ± 0.037
89 | I20D | -0.415 ± 0.067
90 | Q34Y | -0.05 ± 0.038
91 | Q62M | -0.153 ± 0.061
92 | V11Y | -0.326 ± 0.15
93 | K14A | -0.064 ± 0.075
94 | C21V | -0.174 ± 0.041
95 | V37K | -0.232 ± 0.069
96 | M61H | -0.812 ± 0.11

Row | Variant | abundance fitness
97 | T8N | -0.158 ± 0.058
98 | R23S | -0.101 ± 0.035
99 | K14T | 0.077 ± 0.069
100 | I59E | 0.028 ± 0.064
101 | V29T | -0.258 ± 0.034
102 | G54L | -0.011 ± 0.029
103 | S42F | -0.167 ± 0.031
104 | F58L | -0.274 ± 0.031
105 | S48E | -0.103 ± 0.055
106 | S36A | 0.073 ± 0.035
107 | E13H | -0.155 ± 0.08
108 | G19N | -0.007 ± 0.076
109 | M40V | -0.046 ± 0.07
110 | Q52A | 0.042 ± 0.03
111 | E56I | 0.096 ± 0.095
112 | D3Y | -0.358 ± 0.047
113 | N18L | 0.115 ± 0.027
114 | E6R | -0.162 ± 0.034
115 | K14I | -0.022 ± 0.051
116 | L41A | -0.223 ± 0.079
117 | I59Y | -0.059 ± 0.059
118 | V11M | -0.162 ± 0.041
119 | L50S | -0.865 ± 0.052
120 | E56W | -0.314 ± 0.039

Row | Variant | abundance fitness
121 | I24G | -0.347 ± 0.042
122 | V11Q | -0.218 ± 0.04
123 | A16E | -0.1 ± 0.044
124 | I59F | -0.212 ± 0.072
125 | A16F | -0.198 ± 0.058
126 | G54Y | -0.165 ± 0.059
127 | V37P | -0.311 ± 0.028
128 | C21G | -0.062 ± 0.036
129 | P57A | -0.016 ± 0.063
130 | R23W | -0.154 ± 0.044
131 | D67H | -0.296 ± 0.13
132 | D3W | -0.221 ± 0.035
133 | E13S | -0.129 ± 0.037
134 | S66I | -0.039 ± 0.08
135 | S66T | -0.008 ± 0.032
136 | G31C | -0.257 ± 0.044
137 | C21A | -0.04 ± 0.038
138 | W64F | -0.222 ± 0.082
139 | G31Q | -0.213 ± 0.064
140 | P46T | -0.08 ± 0.036
141 | F58Y | 0.186 ± 0.19
142 | G26E | -0.397 ± 0.073
143 | I59K | 0.079 ± 0.051
144 | A16I | -0.313 ± 0.079

Row | Variant | abundance fitness
145 | D67Y | -0.321 ± 0.065
146 | M40E | -0.475 ± 0.1
147 | I59S | -0.118 ± 0.034
148 | R60P | -0.912 ± 0.033
149 | R60H | -0.462 ± 0.064
150 | E27K | 0.001 ± 0.032
151 | Q52D | 0.017 ± 0.12
152 | F58G | -0.888 ± 0.099
153 | E56L | -0.211 ± 0.032
154 | E56H | -0.446 ± 0.077
155 | L65C | -0.511 ± 0.1
156 | D39E | 0.029 ± 0.31
157 | L65F | -0.193 ± 0.042
158 | A16S | 0.008 ± 0.038
159 | L41P | -0.257 ± 0.032
160 | I20A | -0.535 ± 0.052
161 | V2S | -0.019 ± 0.033
162 | E13K | -0.101 ± 0.043
163 | Q34G | 0.434 ± 0.23
164 | Q10L | -0.018 ± 0.026
165 | R9A | -0.044 ± 0.033
166 | E27R | -0.019 ± 0.032
167 | K12S | -0.387 ± 0.032
